Measurements from patent US20100209346A1.

Experiments:
Test in all cases: dot blot; antigen dilution series 100-0.01 pmol on nitrocellulose
[1] = molecular target: Aβ(1-42) fibril preparation of example 27 (human)
[2] = molecular target: Aβ(1-42) oligomer B preparation of example 6b (oligomers of human amyloid β(1-42) protein with apparent molecular weights of 38 kDa and 48 kDa) (human)
[3] = molecular target: HFIP-treated Aβ(1-42) monomer of example 1a (human)

Which results are given for monoclonal antibody 6E10 (Signet)?
detection limit (minimum amount of antigen visible) [1]: 1 pmol; detection limit (minimum amount of antigen visible) [2]: 0.1 pmol; detection limit (minimum amount of antigen visible) [3]: 0.1 pmol
